Results as given in paper PMC2829074.
One block for each molecule: values may come before it. Ends that are not written are not given here.

Key:
[1] = target: denatured multimeric human vitronectin (VTNC) (human)
[2] = target: somatomedin B domain (SMTB 1–44) of vitronectin (human); assay: ELISA; competition: SMTB 1–44 (1.25 µg/well) immobilized; Cyr61 (30 nM) mixed with stable mutant PAI-1 (0, 50, 500 nM) or ixolaris (500 nM) in PBS-T, added for 90 minutes; bound Cyr61 detected with anti-Cyr61 antibody
[3] = target: somatomedin B domain (SMTB 1–44) of vitronectin (human); assay: SPR; kinetics, Biacore T100: monomeric (667.4 RU) or multimeric (625.2 RU) VTNC or SMTB 1–44 (337.2 RU) immobilized on CM5 by amine coupling; analyte injected 90 s at 30 µl/minute, 25°C, HBS-P (10 mM Hepes pH 7.4, 150 mM NaCl, 0.005% P20); Cyr61 fitted by the global two-state (conformational change) model, PAI-1 by the Langmuir 1:1 model
Cyr61/CCN1 = Cyr61/CCN1 (UniProt O00622); assay: ELISA; competitive ELISA: wells coated with multimeric VTNC (25 ng/well); Cyr61 (30 nM) co-incubated for 90 minutes with increasing concentrations of soluble VTNC forms, SMTB 1–44 or ixolaris; VTNC-bound Cyr61 detected with anti-Cyr61 antibody
[4] = target: PAI-1 (recombinant stable mutant form) (UniProt P05121); assay: ITC; VP-ITC, 30°C, 5 µL injections of 10 µM SMTB 1–44 into 1 µM PAI-1 or Cyr61 in the cell; 20 mM Tris-HCl, 0.15 M NaCl, pH 7.4; single-site model
[5] = target: somatomedin B domain (SMTB 1–44) of vitronectin (human); assay: ELISA; solid-phase binding assay: VTNC (25 ng/well) or SMTB 1–44 (2.5 µg/well) immobilized on plates, Cyr61 0–1 µM in PBS-0.4% Tween 20 for 90 minutes, detected with anti-Cyr61 monoclonal antibody; apparent KD by Langmuir isotherm
[6] = target: native monomeric human vitronectin (VTNC) (human); assay: as above
[7] = target: denatured multimeric human vitronectin (VTNC) (human); assay: as above
[8] = target: denatured multimeric human vitronectin (VTNC) (human); assay: ELISA; solid-phase binding assay as a3 on multimeric VTNC, in TBS 0.4% Tween supplemented with 0.5% gelatin; apparent KD
[9] = target: native monomeric human vitronectin (VTNC) (human); assay: SPR; kinetics, Biacore T100: monomeric (667.4 RU) or multimeric (625.2 RU) VTNC or SMTB 1–44 (337.2 RU) immobilized on CM5 by amine coupling; analyte injected 90 s at 30 µl/minute, 25°C, HBS-P (10 mM Hepes pH 7.4, 150 mM NaCl, 0.005% P20); Cyr61 fitted by the global two-state (conformational change) model, PAI-1 by the Langmuir 1:1 model
[10] = target: denatured multimeric human vitronectin (VTNC) (human); assay: as above

- inhibition of adhesion of uPAR-bearing PMA-differentiated U937 cells to VTNC-coated wells pre-incubated with stable mutant PAI-1 (1.5 µM); pair blocked: uPAR with VTNC [1]: > 90%
- percent inhibition of Cyr61 binding to SMTB 1–44 at 500 nM PAI-1 [2]: > 80%
- Kd [3]: 0.0433 nM
- koff [3]: 0.0001 s⁻¹
- kon [3]: 2.31e+06 M⁻¹ s⁻¹
Molecule: PAI-1 (recombinant stable mutant form) (from UniProt P05121 24-402) (natural protein)

- percent inhibition of Cyr61 binding to immobilized VTNC at 15 µg/ml (Cyr61/CCN1): > 50%
Molecule: denatured multimeric human vitronectin (VTNC) (natural protein)

- Kd [4]: < 1 nM
- dH [4]: -24 kcal/mol
- stoichiometry N [4]: 0.77
B1: somatomedin B domain (SMTB 1–44) of vitronectin (peptide)
peptide: DQESCKGRCTEGFNVDKKCQCDELCSYYQSCCTDYTAECKPQVT
modifications: disulfide (positions not given here); also: eight oxidized cysteines, pairing not given here

- Kd [5]: 27.2 nM
- Kd [6]: 26.5 nM
- Kd [7]: 22.6 nM
- inhibition of adhesion of uPAR-bearing PMA-differentiated U937 cells to VTNC-coated wells pre-incubated with Cyr61 (1.5 µM); pair blocked: uPAR with VTNC [1]: 40%
- Kd [8]: 36.5 nM
- Kd [9]: 5.66 nM
- ka1 (two-state model, step 1) [9]: 568000 M⁻¹ s⁻¹
- ka2 (two-state model, step 2) [9]: 0.00783 s⁻¹
- kd1 (two-state model, step 1) [9]: 0.0245 s⁻¹
- kd2 (two-state model, step 2) [9]: 0.00118 s⁻¹
- Kd [10]: 27.6 nM
- ka1 (two-state model, step 1) [10]: 104000 M⁻¹ s⁻¹
- ka2 (two-state model, step 2) [10]: 0.00255 s⁻¹
- kd1 (two-state model, step 1) [10]: 0.0695 s⁻¹
- kd2 (two-state model, step 2) [10]: 0.00011 s⁻¹
- Kd [3]: 10.1 nM
- ka1 (two-state model, step 1) [3]: 127000 M⁻¹ s⁻¹
- ka2 (two-state model, step 2) [3]: 0.0109 s⁻¹
- kd1 (two-state model, step 1) [3]: 0.025 s⁻¹
- kd2 (two-state model, step 2) [3]: 0.000592 s⁻¹
B2: Cyr61/CCN1 (natural protein)
chain: TCPAACHCPLEAPKCAPGVGLVRDGCGCCKVCAKQLNEDCSKTQPCDHTKGLECNFGASSTALKGICRAQSEGRPCEYNSRIYQNGESFQPNCKHQCTCIDGAVGCIPLCPQELSLPNLGCPNPRLVKVTGQCCEEWVCDEDSIKDPMEDQDGLLGKELGFDASEVELTRNNELIAVGKGSSLKRLPVFGMEPRILYNPLQGQKCIVQTTSWSQCSKTCGTGISTRVTNDNPECRLVKETRICEVRPCGQPVYSSLKKGKKCSKTKKSPEPVRFTYAGCLSVKKYRPKYCGSCVDGRCCTPQLTRTVKMRFRCEDGETFSKNVMMIQSCKCNYNCPHANEAAFPFYRLFNDIHKFRD
